Reference: PMC4325132 (FEBS Open Bio, 2015)

Assays:
[1] = target: mouse cardiac TnI A117G mutation (mouse, UniProt P48787 1-211, A117G); assay: ELISA
[2] = target: mouse cardiac TnI K118C mutation (mouse, UniProt P48787 1-211, K118C); assay: ELISA
mouse cardiac TnI K118C mutation, sequence (P48787 whole entry K118C): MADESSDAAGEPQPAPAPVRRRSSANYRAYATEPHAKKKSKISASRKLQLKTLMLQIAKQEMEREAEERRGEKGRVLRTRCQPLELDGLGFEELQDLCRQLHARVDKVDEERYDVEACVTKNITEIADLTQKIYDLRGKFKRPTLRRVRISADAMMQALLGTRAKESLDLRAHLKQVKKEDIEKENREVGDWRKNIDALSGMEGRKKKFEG

mouse cardiac TnI A117G mutation, sequence (P48787 whole entry A117G): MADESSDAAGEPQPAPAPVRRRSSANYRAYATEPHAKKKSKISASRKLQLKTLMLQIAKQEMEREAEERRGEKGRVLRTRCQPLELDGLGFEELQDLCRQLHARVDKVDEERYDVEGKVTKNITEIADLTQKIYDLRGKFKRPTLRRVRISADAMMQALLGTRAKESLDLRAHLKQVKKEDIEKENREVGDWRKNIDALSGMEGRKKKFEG

binding result [1]: binds
binding result [2]: binds
B1: Chicken fast TnC (natural protein)
chain: not shown
